Assay results from publication PMC9040831 (mBio, 2022).

Columns and labels:
AmtB (EcAmtB) = target: T1, AmtB (EcAmtB) (Escherichia coli, UniProt P69681); assay: solid supported membrane electrophysiology (SSME), proteoliposomes; assay type: biochemical; conditions: read-out: Ammonium; transport; maximum transient current amplitude
T1 construct: AmtB(His)6 from pET22b(+), expressed in E. coli C43, purified, reconstituted into liposomes; homotrimer; 1U7G for the simulations only
T1 sequence (P69681 23-428): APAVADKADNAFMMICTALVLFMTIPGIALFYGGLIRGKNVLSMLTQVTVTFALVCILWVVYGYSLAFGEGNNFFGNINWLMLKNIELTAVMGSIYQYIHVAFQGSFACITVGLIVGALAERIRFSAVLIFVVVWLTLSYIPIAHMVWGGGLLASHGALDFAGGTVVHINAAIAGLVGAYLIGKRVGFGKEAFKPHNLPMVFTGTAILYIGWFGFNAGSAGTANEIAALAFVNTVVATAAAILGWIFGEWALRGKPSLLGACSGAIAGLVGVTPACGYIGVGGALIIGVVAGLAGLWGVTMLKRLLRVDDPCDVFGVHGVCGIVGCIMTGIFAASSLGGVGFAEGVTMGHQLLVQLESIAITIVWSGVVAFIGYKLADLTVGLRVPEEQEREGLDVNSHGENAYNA
Text: (§1) solid supported membrane electrophysiology (SSME), proteoliposomes on AmtB (EcAmtB)

[1] = substrate: CN; assay: as above; assay type: biochemical, Escherichia coli; conditions: transport; maximum transient current amplitude
Text: as §1

purified protein = substrate: N; assay: purified protein; conditions: transport; maximum transient current amplitude

Molecule: N [ammonium]
- Km (AmtB (EcAmtB)): 0.8 ± 0.1 mM

B1: AmtB (EcAmtB) (Escherichia coli K-12) (protein)
chain: APAVADKADNAFMMICTALVLFMTIPGIALFYGGLIRGKNVLSMLTQVTVTFALVCILWVVYGYSLAFGEGNNFFGNINWLMLKNIELTAVMGSIYQYIHVAFQGSFACITVGLIVGALAERIRFSAVLIFVVVWLTLSYIPIAHMVWGGGLLASHGALDFAGGTVVHINAAIAGLVGAYLIGKRVGFGKEAFKPHNLPMVFTGTAILYIGWFGFNAGSAGTANEIAALAFVNTVVATAAAILGWIFGEWALRGKPSLLGACSGAIAGLVGVTPACGYIGVGGALIIGVVAGLAGLWGVTMLKRLLRVDDPCDVFGVHGVCGIVGCIMTGIFAASSLGGVGFAEGVTMGHQLLVQLESIAITIVWSGVVAFIGYKLADLTVGLRVPEEQEREGLDVNSHGENAYNA
notes: AmtB(His)6 from pET22b(+), expressed in E. coli C43, purified, reconstituted into liposomes; homotrimer; 1U7G for the simulations only
- Km [1]: 49.86 ± 4.76 mM

B2: AmtB (EcAmtB) (Escherichia coli K-12; H190D) (protein)
chain: APAVADKADNAFMMICTALVLFMTIPGIALFYGGLIRGKNVLSMLTQVTVTFALVCILWVVYGYSLAFGEGNNFFGNINWLMLKNIELTAVMGSIYQYIHVAFQGSFACITVGLIVGALAERIRFSAVLIFVVVWLTLSYIPIAHMVWGGGLLASHGALDFAGGTVVDINAAIAGLVGAYLIGKRVGFGKEAFKPHNLPMVFTGTAILYIGWFGFNAGSAGTANEIAALAFVNTVVATAAAILGWIFGEWALRGKPSLLGACSGAIAGLVGVTPACGYIGVGGALIIGVVAGLAGLWGVTMLKRLLRVDDPCDVFGVHGVCGIVGCIMTGIFAASSLGGVGFAEGVTMGHQLLVQLESIAITIVWSGVVAFIGYKLADLTVGLRVPEEQEREGLDVNSHGENAYNA
notes: as for B1
- Km (purified protein): 14.02 ± 4.08 mM
- Km [1]: 55.09 ± 12.67 mM

B3: AmtB (EcAmtB) (Escherichia coli K-12; H190E) (protein)
chain: APAVADKADNAFMMICTALVLFMTIPGIALFYGGLIRGKNVLSMLTQVTVTFALVCILWVVYGYSLAFGEGNNFFGNINWLMLKNIELTAVMGSIYQYIHVAFQGSFACITVGLIVGALAERIRFSAVLIFVVVWLTLSYIPIAHMVWGGGLLASHGALDFAGGTVVEINAAIAGLVGAYLIGKRVGFGKEAFKPHNLPMVFTGTAILYIGWFGFNAGSAGTANEIAALAFVNTVVATAAAILGWIFGEWALRGKPSLLGACSGAIAGLVGVTPACGYIGVGGALIIGVVAGLAGLWGVTMLKRLLRVDDPCDVFGVHGVCGIVGCIMTGIFAASSLGGVGFAEGVTMGHQLLVQLESIAITIVWSGVVAFIGYKLADLTVGLRVPEEQEREGLDVNSHGENAYNA
notes: as for B1
- Km (purified protein): 12.87 ± 7.79 mM
- Km [1]: 86.00 ± 9.46 mM
